# According to article PMC6037785, “Microtubule minus-end aster organization is driven by processive HSET-tubulin clusters” (Nature Communications, 2018):
# Key:
# [1] = target: unlabeled HSET (full-length HSET with N-terminal 6x His tag, no EGFP) (human) (UniProt Q9BW19); test: fluorescence intensity analysis of moving particles (TIRF); first frame of moving EGFP-HSET (with unlabeled tubulin) or moving Cy5-tubulin (10 nM, with 10 nM unlabeled HSET) on GMPCPP-MTs compared with single molecules adhered to glass; BRB80 + 50 mM KCl with 0.5 mg/mL casein
# [2] = target: the molecule itself; test: single-molecule stepwise photobleaching (TIRF); single EGFP-tagged molecules adhered to a glass surface; photobleaching traces compared with EGFP-XMCAK, a known dimer; monomers to dimer
Molecule,brightness of moving Cy5-tubulin particles (with HSET) over single Cy5-tubulin molecules [1] [fold],stoichiometry N [2]
"Cy5-tubulin (bovine brain tubulin labeled with NHS-Cy5, 100% labeled) (from UniProt Q6B856 1-445) (complex)",11.8,
"EGFP-HSET-DoubleTail (other, human, HSET/KIFC1, Homo sapiens kinesin-14, amino acids 1-307 (tail and stalk); flexible amino acid linker; HSET/KIFC1, Homo sapiens kinesin-14, amino acids 1-137 (second copy of the N-terminal tail in place of the motor domain); also called pET15b-HTa-EGFP-HSETDoubleTail; source: E. coli BL21DE3, purified (Ni-NTA, size exclusion chromatography); not shown: His6, N-terminal, kept; EGFP, N-terminal, kept) MDPQRSPLLEVKGNIELKRPLIKAPSQLPLSGSRLKRRPDQMEDGLEPEKKRTRGLGATTKITTSHPRVPSLTTVPQTQGQTTAQKVSKKTGPRCSTAIATGLKNQKPVPAVPVQKSGTSGVPPMAGGKKPSKRPAWDLKGQLCDLNAELKRCRERTQTLDQENQQLQDQLRDAQQQVKALGTERTTLEGHLAKVQAQAEQGQQELKNLRACVLELEERLSTQEGLVQELQKKQVELQEERRGLMSQLEEKERRLQTSEAALSSSQAEVASLRQETVAQAALLTEREERLHGLEMERRRLHNQLQELGGSGGSMDPQRSPLLEVKGNIELKRPLIKAPSQLPLSGSRLKRRPDQMEDGLEPEKKRTRGLGATTKITTSHPRVPSLTTVPQTQGQTTAQKVSKKTGPRCSTAIATGLKNQKPVPAVPVQKSGTSGVPPMAGGKKPSKRPAW",,2
"EGFP-HSET (full-length HSET/KIFC1, human kinesin-14, with N-terminal 6x His tag and EGFP) (natural protein, UniProt Q9BW19 1-673, looked up, HSET/KIFC1, Homo sapiens kinesin-14, amino acids 1-673; No tag cleavage is described; also called full-length EGFP-HSET; pFASTBAC-HTa-EGFP-HSET; source: Sf9 cells (baculovirus), purified (Ni-NTA, size exclusion chromatography); not shown: His6, N-terminal, kept; EGFP, N-terminal, kept) MDPQRSPLLEVKGNIELKRPLIKAPSQLPLSGSRLKRRPDQMEDGLEPEKKRTRGLGATTKITTSHPRVPSLTTVPQTQGQTTAQKVSKKTGPRCSTAIATGLKNQKPVPAVPVQKSGTSGVPPMAGGKKPSKRPAWDLKGQLCDLNAELKRCRERTQTLDQENQQLQDQLRDAQQQVKALGTERTTLEGHLAKVQAQAEQGQQELKNLRACVLELEERLSTQEGLVQELQKKQVELQEERRGLMSQLEEKERRLQTSEAALSSSQAEVASLRQETVAQAALLTEREERLHGLEMERRRLHNQLQELKGNIRVFCRVRPVLPGEPTPPPGLLLFPSGPGGPSDPPTRLSLSRSDERRGTLSGAPAPPTRHDFSFDRVFPPGSGQDEVFEEIAMLVQSALDGYPVCIFAYGQTGSGKTFTMEGGPGGDPQLEGLIPRALRHLFSVAQELSGQGWTYSFVASYVEIYNETVRDLLATGTRKGQGGECEIRRAGPGSEELTVTNARYVPVSCEKEVDALLHLARQNRAVARTAQNERSSRSHSVFQLQISGEHSSRGLQCGAPLSLVDLAGSERLDPGLALGPGERERLRETQAINSSLSTLGLVIMALSNKESHVPYRNSKLTYLLQNSLGGSAKMLMFVNISPLEENVSESLNSLRFASKVNQCVIGTAQANRK",,2
"EGFP-HSETΔMotor (domain or fragment, human, UniProt Q9BW19 1-304, looked up, HSET/KIFC1, Homo sapiens kinesin-14, amino acids 1-304 (tail and stalk, motor domain deleted); also called pET15b-HTa-EGFP-HSETΔMotor; source: E. coli BL21DE3, purified (Ni-NTA, size exclusion chromatography); not shown: His6, N-terminal, kept; EGFP, N-terminal, kept) MDPQRSPLLEVKGNIELKRPLIKAPSQLPLSGSRLKRRPDQMEDGLEPEKKRTRGLGATTKITTSHPRVPSLTTVPQTQGQTTAQKVSKKTGPRCSTAIATGLKNQKPVPAVPVQKSGTSGVPPMAGGKKPSKRPAWDLKGQLCDLNAELKRCRERTQTLDQENQQLQDQLRDAQQQVKALGTERTTLEGHLAKVQAQAEQGQQELKNLRACVLELEERLSTQEGLVQELQKKQVELQEERRGLMSQLEEKERRLQTSEAALSSSQAEVASLRQETVAQAALLTEREERLHGLEMERRRLHNQL",,2
"EGFP-HSETΔTail (domain or fragment, human, UniProt Q9BW19 139-673, looked up, HSET/KIFC1, Homo sapiens kinesin-14, amino acids 139-673 (stalk and motor, N-terminal tail deleted); also called pFASTBAC-HTa-EGFP-HSETΔTail; tailless HSET; source: Sf9 cells (baculovirus), purified (Ni-NTA, size exclusion chromatography); not shown: His6, N-terminal, kept; EGFP, N-terminal, kept) LKGQLCDLNAELKRCRERTQTLDQENQQLQDQLRDAQQQVKALGTERTTLEGHLAKVQAQAEQGQQELKNLRACVLELEERLSTQEGLVQELQKKQVELQEERRGLMSQLEEKERRLQTSEAALSSSQAEVASLRQETVAQAALLTEREERLHGLEMERRRLHNQLQELKGNIRVFCRVRPVLPGEPTPPPGLLLFPSGPGGPSDPPTRLSLSRSDERRGTLSGAPAPPTRHDFSFDRVFPPGSGQDEVFEEIAMLVQSALDGYPVCIFAYGQTGSGKTFTMEGGPGGDPQLEGLIPRALRHLFSVAQELSGQGWTYSFVASYVEIYNETVRDLLATGTRKGQGGECEIRRAGPGSEELTVTNARYVPVSCEKEVDALLHLARQNRAVARTAQNERSSRSHSVFQLQISGEHSSRGLQCGAPLSLVDLAGSERLDPGLALGPGERERLRETQAINSSLSTLGLVIMALSNKESHVPYRNSKLTYLLQNSLGGSAKMLMFVNISPLEENVSESLNSLRFASKVNQCVIGTAQANRK",,2
